{
  "source": "patent US20090233850A1",
  "about": "(PHILADELPHIA HEALTH AND EDUCATION CORPORATION D B A DREXEL …, published 2009)",
  "key": {"[1]": {"molecular_target": "T1, HIV-1 SF162 gp120 (Clade B) (HIV-1 SF162, UniProt P19550 32-502)", "T1 construct": "domain: gp120", "assay": "ELISA, 100 ng gp120 adsorbed on the plate, 50 nM CVN, detection with polyclonal anti-CVN, BSA background subtracted"}, "[2]": {"molecular_target": "T2, recombinant monomeric HIV-1 YU2 gp120, produced in Drosophila S2 cells (HIV-1 YU2, UniProt P35961 32-498, limits assumed, glycosylated (high-mannose glycans are the CVN binding sites))", "T2 construct": "domain: gp120", "assay": "competition ELISA, adsorbed YU2 gp120, increasing L5 with 2 ug/ml mAb 17b as competitor; inhibition of mAb 17b binding to gp120, ELISA"}, "[3]": {"molecular_target": "T2, recombinant monomeric HIV-1 YU2 gp120, …", "assay": "ELISA, 100 ng YU2 gp120 adsorbed on the plate, serial dilutions of L5, detection with polyclonal anti-CVN, BSA background subtracted"}, "[4]": {"molecular_target": "T2, recombinant monomeric HIV-1 YU2 gp120, …", "assay": "competition ELISA on plate-adsorbed YU2 gp120; competitor mAb F105 at a 1:20,000 dilution; percent of control without L5"}, "[5]": {"molecular_target": "T2, recombinant monomeric HIV-1 YU2 gp120, …", "assay": "competition ELISA on plate-adsorbed YU2 gp120; competitor mAb 2G12 at 50 ug/ml; percent of control without L5"}, "[6]": {"molecular_target": "T2, recombinant monomeric HIV-1 YU2 gp120, …", "assay": "competition ELISA on plate-adsorbed YU2 gp120; blocked ligand sCD4 at 0.5 ug/ml, detected with anti-CD4; percent of uninhibited control"}, "[7]": {"molecular_target": "T2, recombinant monomeric HIV-1 YU2 gp120, …", "assay": "ELISA, 100 ng YU2 gp120 adsorbed on the plate, serial dilutions of L5-S12p1, detection with polyclonal anti-CVN, BSA background subtracted", "protocol": "Error bars indicate standard deviation.\nYU2 was adsorbed to a 96-well EIA/RIA plate overnight at 4° C.\nNinety-six well plates (Corning) were coated with either 100 ng of the indicated gp120 or BSA overnight at 4° C. The wells were washed three times with 1×PBS-T (PBS, 0.1% Tween) and non-specific binding blocked with 1% (wt/vol) BSA in PBS. […] After a one hour incubation, the wells were washed and incubated with a 1/2500 dilution of anti-rabbit HRP (Amersham) for one hour at room temperature. The wells were washed three times and the extent of binding was then determined by OPD (o-phenylenediamine, Sigma) and absorbance measured at 450 nm."}},
  "data": [
    {"binder": "cyanovirin-N (CVN), recombinant, periplasmic expression in E. coli, hexa-histidine tagged (other, Lectin, 11 kDa) LGKFSQTCYNSAIQGSVLTSTCERTNGGYNTSSIDLNSVIENVDGSLKWQPSNFIETCRNTQLAGSSELAAECKTRAQQFVSTKINLDDHIANIDGTLKYEHHHHHH", "values": [
      {"measurement": "binding result", "setting": "[1]", "value": "binds"}
    ]},
    {"binder": "L5 chimera (CVN-12p1): CVN, linker of five Gly4Ser repeats, 12p1, C-terminal hexa-histidine tag (other, Fusion protein, about 15 kDa; also called the chimera) LGKFSQTCYNSAIQGSVLTSTCERTNGGYNTSSIDLNSVIENVDGSLKWQPSNFIETCRNTQLAGSSELAAECKTRAQQFVSTKINLDDHIANIDGTLKYEGSGGGGSGGGGSGGGGSGGGGSGGGGSRINNIPWSEAMMHHHHHH", "values": [
      {"measurement": "IC50", "setting": "[2]", "value": 38, "unit": "nM"},
      {"measurement": "EC50 (read off the curve)", "setting": "[3]", "value": "~9", "unit": "nM"},
      {"measurement": "IC50 (read off the curve)", "setting": "[4]", "value": "~20", "unit": "nM"},
      {"measurement": "IC50 (read off the curve)", "setting": "[5]", "value": "~40", "unit": "nM"},
      {"measurement": "IC50 (read off the curve)", "setting": "[6]", "value": "~20", "unit": "nM"}
    ]},
    {"binder": "L5-S12p1: chimera of CVN, linker of five Gly4Ser repeats and scrambled (non-sense) 12p1 peptide (other, check the entry type; also called scrambled chimera) LGKFSQTCYNSAIQGSVLTSTCERTNGGYNTSSIDLNSVIENVDGSLKWQPSNFIETCRNTQLAGSSELAAECKTRAQQFVSTKINLDDHIANIDGTLKYEGSGGGGSGGGGSGGGGSGGGGSGGGGSWRIMMIPSEANNHHHHHH", "values": [
      {"measurement": "EC50 (read off the curve)", "setting": "[7]", "value": "~20", "unit": "nM"}
    ]}
  ]
}
